According to patent US20070077617:
Changes are numbered by the printed parent chain. Names may count otherwise.

B1: OmpT protease variant OmpT D97M (protein)
chain: STETLSFTPDNINADISLGTLSGKTKERVYLAEEGGRKVSQLDWKFNNAAIIKGAINWDLMPQISIGAAGWTTLGSRGGNMVDQDWMDSSNPGTWTMESRHPDTQLNYANEFDLNIKGWLLNEPNYRLGLMAGYQESRYSFTARGGSYIYSSEEGFRDDIGSFPNGERAIGYKQRFKMPYIGLTGSYRYEDFELGGTFKYSGWVESSDNDEHYDPGKRITYRSKVKDQNYYSVAVNAGYYVTPNAKVYVEGAWNRVTNKKGNTSLYDHNNNTSDYSKNGAGIENYNFITTAGLKYTF
B2: OmpT protease variant OmpT D97H (protein)
chain: B1 chain with M97H
B3: OmpT protease variant OmpT D97L (protein)
chain: B1 chain with M97L

Tests used:
[1] = biological target: fusion protein PRF
fusion protein PRF, sequence (chain, as listed by the source): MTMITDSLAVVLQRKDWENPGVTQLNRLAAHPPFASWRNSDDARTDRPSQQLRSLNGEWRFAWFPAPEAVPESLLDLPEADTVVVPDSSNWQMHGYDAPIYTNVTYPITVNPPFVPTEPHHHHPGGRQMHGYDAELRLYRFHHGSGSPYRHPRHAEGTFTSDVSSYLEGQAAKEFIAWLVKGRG

[2] = biological target: fusion protein PRC
fusion protein PRC, sequence (chain, as listed by the source): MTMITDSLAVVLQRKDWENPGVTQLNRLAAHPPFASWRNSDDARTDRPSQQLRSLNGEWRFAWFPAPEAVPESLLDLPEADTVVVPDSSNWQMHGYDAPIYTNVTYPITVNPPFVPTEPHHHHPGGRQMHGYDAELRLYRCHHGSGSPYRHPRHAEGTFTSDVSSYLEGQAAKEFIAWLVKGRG

[3] = biological target: fusion protein PRP
[4] = biological target: fusion protein PRA
fusion protein PRA, sequence (chain, as listed by the source): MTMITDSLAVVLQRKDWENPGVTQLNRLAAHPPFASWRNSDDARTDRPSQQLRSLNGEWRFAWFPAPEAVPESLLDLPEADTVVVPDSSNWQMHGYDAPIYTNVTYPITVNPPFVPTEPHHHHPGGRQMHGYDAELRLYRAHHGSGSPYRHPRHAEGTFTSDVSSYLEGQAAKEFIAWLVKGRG

[5] = biological target: motilin fusion protein PMT6D
motilin fusion protein PMT6D, sequence (chain, as listed by the source): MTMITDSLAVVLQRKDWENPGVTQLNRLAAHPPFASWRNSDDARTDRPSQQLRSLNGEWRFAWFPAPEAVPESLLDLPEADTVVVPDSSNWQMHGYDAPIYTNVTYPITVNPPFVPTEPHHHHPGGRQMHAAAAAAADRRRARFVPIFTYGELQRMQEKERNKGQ

[6] = biological target: fusion protein PMT
fusion protein PMT, sequence (chain, as listed by the source): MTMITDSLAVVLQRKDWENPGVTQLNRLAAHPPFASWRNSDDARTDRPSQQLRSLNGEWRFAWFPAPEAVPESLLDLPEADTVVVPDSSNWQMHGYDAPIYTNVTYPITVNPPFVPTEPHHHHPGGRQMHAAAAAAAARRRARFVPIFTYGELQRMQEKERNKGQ

[7] = biological target: fusion protein PRS
fusion protein PRS, sequence (chain, as listed by the source): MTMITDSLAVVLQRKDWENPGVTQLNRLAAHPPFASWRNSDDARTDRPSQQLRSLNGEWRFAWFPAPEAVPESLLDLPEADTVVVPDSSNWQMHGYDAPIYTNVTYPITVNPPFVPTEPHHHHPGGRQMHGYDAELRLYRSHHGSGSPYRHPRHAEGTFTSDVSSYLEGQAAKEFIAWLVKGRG

[8] = biological target: fusion protein PRG
fusion protein PRG, sequence (chain, as listed by the source): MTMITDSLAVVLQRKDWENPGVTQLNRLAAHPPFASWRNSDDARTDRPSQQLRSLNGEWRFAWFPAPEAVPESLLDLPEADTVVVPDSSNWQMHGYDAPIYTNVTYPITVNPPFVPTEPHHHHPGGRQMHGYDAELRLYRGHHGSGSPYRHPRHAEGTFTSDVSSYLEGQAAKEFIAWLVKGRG

[9] = biological target: fusion protein PRL
fusion protein PRL, sequence (chain, as listed by the source): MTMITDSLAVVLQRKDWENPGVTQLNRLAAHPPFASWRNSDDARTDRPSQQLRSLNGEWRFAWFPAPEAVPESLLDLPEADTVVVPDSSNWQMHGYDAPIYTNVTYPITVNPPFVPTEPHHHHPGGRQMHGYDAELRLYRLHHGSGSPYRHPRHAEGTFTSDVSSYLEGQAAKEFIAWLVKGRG

[10] = biological target: fusion protein PRD
fusion protein PRD, sequence (chain, as listed by the source): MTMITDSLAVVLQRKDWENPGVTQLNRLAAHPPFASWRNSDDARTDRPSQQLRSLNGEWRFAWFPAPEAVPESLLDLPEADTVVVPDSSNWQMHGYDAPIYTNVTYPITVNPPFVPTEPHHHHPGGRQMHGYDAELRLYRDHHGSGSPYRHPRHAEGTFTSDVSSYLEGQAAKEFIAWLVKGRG

[11] = biological target: fusion protein PRMT; conditions: scale: relative
fusion protein PRMT, sequence (chain, as listed by the source): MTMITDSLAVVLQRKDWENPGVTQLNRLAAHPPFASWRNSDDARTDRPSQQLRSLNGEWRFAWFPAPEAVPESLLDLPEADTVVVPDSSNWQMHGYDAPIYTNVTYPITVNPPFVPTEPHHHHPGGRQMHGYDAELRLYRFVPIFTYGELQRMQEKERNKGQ

[12] = biological target: fusion protein PRK
fusion protein PRK, sequence (chain, as listed by the source): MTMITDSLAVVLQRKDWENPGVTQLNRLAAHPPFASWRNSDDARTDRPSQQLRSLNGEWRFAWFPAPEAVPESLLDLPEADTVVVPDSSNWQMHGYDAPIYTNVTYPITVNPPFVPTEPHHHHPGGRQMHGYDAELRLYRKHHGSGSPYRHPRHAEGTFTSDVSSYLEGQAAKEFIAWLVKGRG

[13] = biological target: fusion protein PRR
fusion protein PRR, sequence (chain, as listed by the source): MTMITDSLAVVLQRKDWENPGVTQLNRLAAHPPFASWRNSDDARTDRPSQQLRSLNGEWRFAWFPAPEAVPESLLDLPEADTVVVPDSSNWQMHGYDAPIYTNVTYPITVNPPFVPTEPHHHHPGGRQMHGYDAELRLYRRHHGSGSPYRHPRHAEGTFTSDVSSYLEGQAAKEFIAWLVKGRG

[14] = biological target: fusion protein PRW
fusion protein PRW, sequence (chain, as listed by the source): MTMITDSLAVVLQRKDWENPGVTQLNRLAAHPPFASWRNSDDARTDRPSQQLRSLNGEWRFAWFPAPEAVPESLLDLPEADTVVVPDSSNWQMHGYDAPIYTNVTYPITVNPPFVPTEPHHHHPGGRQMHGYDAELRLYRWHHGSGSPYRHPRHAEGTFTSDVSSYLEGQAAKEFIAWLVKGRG

[15] = biological target: fusion protein PRE
fusion protein PRE, sequence (chain, as listed by the source): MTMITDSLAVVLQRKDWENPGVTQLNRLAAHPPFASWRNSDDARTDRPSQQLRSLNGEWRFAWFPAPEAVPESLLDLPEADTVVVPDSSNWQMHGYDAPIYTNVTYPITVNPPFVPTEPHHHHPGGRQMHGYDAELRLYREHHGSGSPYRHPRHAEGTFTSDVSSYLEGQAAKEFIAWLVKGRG

[16] = biological target: fusion protein PRY
fusion protein PRY, sequence (chain, as listed by the source): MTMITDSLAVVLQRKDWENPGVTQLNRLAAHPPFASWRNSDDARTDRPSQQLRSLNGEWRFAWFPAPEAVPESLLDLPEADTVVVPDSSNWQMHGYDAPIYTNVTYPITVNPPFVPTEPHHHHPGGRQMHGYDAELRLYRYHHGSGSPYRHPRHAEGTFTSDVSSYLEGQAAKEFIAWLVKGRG

[17] = biological target: fusion protein PRN
fusion protein PRN, sequence (chain, as listed by the source): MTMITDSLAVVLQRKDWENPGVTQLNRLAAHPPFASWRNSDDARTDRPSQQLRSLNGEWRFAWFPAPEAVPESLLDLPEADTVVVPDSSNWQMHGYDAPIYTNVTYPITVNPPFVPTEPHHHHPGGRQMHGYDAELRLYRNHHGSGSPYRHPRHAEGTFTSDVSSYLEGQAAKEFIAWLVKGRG

[18] = biological target: fusion protein PRI
fusion protein PRI, sequence (chain, as listed by the source): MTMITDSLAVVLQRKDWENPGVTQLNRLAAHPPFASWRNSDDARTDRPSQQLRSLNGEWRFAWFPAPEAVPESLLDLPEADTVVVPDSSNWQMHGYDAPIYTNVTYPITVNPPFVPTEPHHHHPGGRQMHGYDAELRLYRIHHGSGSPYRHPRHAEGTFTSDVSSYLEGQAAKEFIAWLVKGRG

[19] = biological target: fusion protein PRQ
fusion protein PRQ, sequence (chain, as listed by the source): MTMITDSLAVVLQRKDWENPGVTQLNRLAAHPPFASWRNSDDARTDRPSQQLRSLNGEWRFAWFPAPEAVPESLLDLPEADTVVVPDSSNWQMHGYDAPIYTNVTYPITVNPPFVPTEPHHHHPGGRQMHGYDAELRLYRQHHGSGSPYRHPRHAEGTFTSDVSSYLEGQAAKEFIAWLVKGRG

[20] = biological target: fusion protein PRT
fusion protein PRT, sequence (chain, as listed by the source): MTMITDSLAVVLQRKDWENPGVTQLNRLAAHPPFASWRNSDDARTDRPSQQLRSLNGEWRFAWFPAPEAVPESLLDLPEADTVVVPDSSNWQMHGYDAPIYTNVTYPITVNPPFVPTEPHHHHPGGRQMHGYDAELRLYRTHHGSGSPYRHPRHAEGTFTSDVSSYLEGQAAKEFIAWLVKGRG

[21] = biological target: fusion protein PRM
fusion protein PRM, sequence (chain, as listed by the source): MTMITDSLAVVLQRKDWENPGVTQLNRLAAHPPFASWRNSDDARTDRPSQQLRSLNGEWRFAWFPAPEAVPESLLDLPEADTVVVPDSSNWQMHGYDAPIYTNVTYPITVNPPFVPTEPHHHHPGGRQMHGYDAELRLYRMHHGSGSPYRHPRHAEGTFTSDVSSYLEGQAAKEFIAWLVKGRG

[22] = biological target: motilin fusion protein PMT7D
motilin fusion protein PMT7D, sequence (chain, as listed by the source): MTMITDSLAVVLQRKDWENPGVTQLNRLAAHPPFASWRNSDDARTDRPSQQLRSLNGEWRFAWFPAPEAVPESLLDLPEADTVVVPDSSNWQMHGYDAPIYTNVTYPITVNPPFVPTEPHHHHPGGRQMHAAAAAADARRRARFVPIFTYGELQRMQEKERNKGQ

[23] = biological target: fusion protein PRH
fusion protein PRH, sequence (chain, as listed by the source): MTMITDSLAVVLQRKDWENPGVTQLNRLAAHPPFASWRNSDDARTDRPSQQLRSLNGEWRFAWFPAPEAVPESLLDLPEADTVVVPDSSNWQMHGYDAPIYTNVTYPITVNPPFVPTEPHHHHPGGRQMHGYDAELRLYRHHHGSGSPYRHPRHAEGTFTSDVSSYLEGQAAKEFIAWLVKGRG

[24] = biological target: human calcitonin precursor fusion protein PCT
human calcitonin precursor fusion protein PCT, sequence (chain, as listed by the source): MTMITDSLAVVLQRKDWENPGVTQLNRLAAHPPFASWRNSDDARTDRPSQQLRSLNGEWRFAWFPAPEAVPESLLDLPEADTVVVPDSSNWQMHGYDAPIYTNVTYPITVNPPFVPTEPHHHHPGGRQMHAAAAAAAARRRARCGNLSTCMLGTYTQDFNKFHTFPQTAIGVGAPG

[25] = biological target: human adrenocorticotropic hormone(1-24) fusion protein PAC
human adrenocorticotropic hormone(1-24) fusion protein PAC, sequence (chain, as listed by the source): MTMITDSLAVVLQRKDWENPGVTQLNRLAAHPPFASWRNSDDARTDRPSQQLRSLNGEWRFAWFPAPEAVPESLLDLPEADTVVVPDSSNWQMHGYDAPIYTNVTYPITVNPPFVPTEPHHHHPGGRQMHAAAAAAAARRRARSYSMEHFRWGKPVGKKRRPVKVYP

| Protein | relative cleavage efficiency [1] [%] | relative cleavage efficiency [2] [%] | relative cleavage efficiency [3] | relative cleavage efficiency [4] [%] | relative cleavage efficiency [7] [%] | relative cleavage efficiency [8] | relative cleavage efficiency [9] | relative cleavage efficiency [10] | relative cleavage efficiency [12] [%] | relative cleavage efficiency [13] [%] | relative cleavage efficiency [14] | relative cleavage efficiency [15] | relative cleavage efficiency [16] [%] | relative cleavage efficiency [17] [%] | relative cleavage efficiency [18] [%] | relative cleavage efficiency [19] | relative cleavage efficiency [20] [%] | relative cleavage efficiency [21] [%] | relative cleavage efficiency [23] | other results |
| --- | --- | --- | --- | --- | --- | --- | --- | --- | --- | --- | --- | --- | --- | --- | --- | --- | --- | --- | --- | --- |
| B1 | 7.7 | 6.5 | less than 3% | 6 | 7.1 | less than 3% | less than 3% | less than 3% | < 3 | < 3 | less than 3% | less than 3% | 6.2 | < 3 | < 3 | less than 3% | < 3 | < 3 | less than 3% | by-product AR-motilin (motilin = 100) [5]: at 3.5 and 16% with PMT6D; by-product RRAR-motilin (motilin = 100) [5]: at 3.5 and 16% with PMT6D; motilin released [5]: Motilin was released at 280, 250 and 370 µg/mL from the motilin fusion proteins PMT, PMT6D and PMT7D, respectively; amount of motilin released, against PRMT [6]: the amount of motilin released from PMT was 3.5 times higher than from PRMT; by-product AR-motilin (motilin = 100) [6]: By-products were yielded at 2.8 and 33% with PMT; by-product RRAR-motilin (motilin = 100) [6]: By-products were yielded at 2.8 and 33% with PMT; digestion (SDS-PAGE), co-expressed inclusion bodies [6]: reaction of 1440 minutes, i.e. 24 hours, caused virtually complete digestion of the fusion protein PMT; motilin released [6]: Motilin was released at 280, 250 and 370 µg/mL from the motilin fusion proteins PMT, PMT6D and PMT7D, respectively; relative cleavage efficiency: Motilin (Arg^143-Phe^144) ([6]; scale: relative): 78; relative cleavage efficiency: RRAR-motilin (Arg^139-Arg^140) ([6]; scale: relative): 24; relative cleavage efficiency: Motilin (Arg^140-Phe^141) [11]: 22; by-product RRAR-motilin [22]: no peak for RRAR-motilin was detected with PMT7D; motilin released [22]: Motilin was released at 280, 250 and 370 µg/mL from the motilin fusion proteins PMT, PMT6D and PMT7D, respectively |
| B2 | 4.1 | 11 | less than 3% | 8.4 | 8.7 | less than 3% | less than 3% | less than 3% | 4.5 | 4.6 | less than 3% | less than 3% | < 3 | 3.5 | 3.1 | less than 3% | 3 | 4.6 | less than 3% | cleavage (HPLC, mass analysis) [24]: PCT was cleaved at Arg^139-Arg^140. Arg^141-Ala^142 and Arg^143-Cys^144 by D97H, releasing RRAR-CT, AR-CT and human calcitonin precursor |
| B3 | 4.7 | 3.9 | less than 3% | 7.1 | 9.1 | less than 3% | less than 3% | less than 3% | < 3 | < 3 | less than 3% | less than 3% | 3.2 | < 3 | < 3 | less than 3% | < 3 | < 3 | less than 3% | by-products [25]: No by-products were released by cleavage at other sites; release of human adrenocorticotropic hormone(1-24), against wild-type OmpT protease [25]: released human adrenocorticotropic hormone(1-24) at 2.9 times compared to wild-type OmpT protease |
